This series is described as follows: soluble on expression in E. coli; label from the status in PepcDB or PDB records.
For “MGSDKIHHHHHHMKILAFGEVLLRMTVPEHLMLTQTDELRMSTVGTGVNLLSSLTHFGYRTRLLSRLPDNALGQRAAGELRRYGIQDDYVTFGGQHMGAYFVELGYGSRPERVTYQDRLSSAFCQQPPDDQEIAAALVGCQFVHICGITLSLTAPVRQAALRLAQQAHANGQRVCFDFNYRQQLNTGVAHETLKARYQEILPYVDIVFGSKRDLTALLDYPDDEDRTQSANRESEAALYEQFVRDYHIDYFAGSYRYQIGQQKWFAGFSYQHQQLVVGKARPLMILDRIGSGDAFASGIITALIEGWSLQKTTDFAIATAILAQATVNDAPEFTKEMVLADMASDGQLELIR”, the “soluble on expression in E. coli” value was “not soluble”.

For the sequence “MGSDKIHHHHHHLDDYDDDIYDMQAGMPFNAALATVVTPSEIPGEAMIESDNDGVAYVVNPDKLTRFETNNPGQRIFYTYINADNPTGDASKKGPFISIDYLQKILTKRMDTLKENEEDIYGHDGINLITPIMGKTHLTLMFQILGFNSNIKHRISLVATEGTVPDANGYMAVELRHNAEGDRQEYPSSGYVSFPLLDVPGYKEGKLQGFKIKMNTINNGEETVTVSYNKSKSTNFPFIQKGISNTKIK”, the “soluble on expression in E. coli” value is reported as “not soluble”.

On to “LLVDKKVSVNDVDIGLISLQYLNIIANYTNKKAIEKITDYLVITSKILAKKADNLLNDHQEESVLEYDLATNNFRDKMIANLVEHKRYCDSLGEFEKLRVNRLAYFSKANEMEQFIKTANDQLVTVEDQLPNYISVLKLFHAMNKLLEMRLSSLLTNKNITIKELSVEQVQKELVLAIKQFNYQTVSLKRVLLKLN”, for which the “soluble on expression in E. coli” value is given as “not soluble”. The same measure for “AGVFNLEGFGPVSRAMGGTGAAFDIGPAAMMENPATLGLMGEGRHFSLGLDVVSTDIKVTNTATGETASSGNHGNNNGPYFAPQTAFVYRQGRYAFGAGIFAEGGLGTQYGGSSFLSRTSNGVDTGLDQFSRLLVLRVPFSAAYHVTDKLTVGASVDAVWTSLNLGTLLDVSQIGTLAGQGRVSGTLVPTLLGVPGLSGGYIDFSRNAPVGGGVQAWGIGGRLGLTYQVTPDTRIGAAYQAKTHVGDLTGQATLSAVSSVAGNIPLKGDVTVRNFQMPAQLTVGISHQFNDQLSVSADYQRVFWSSVMKDMNVGFVQSGSAANLDLSLPQNYRDISVFGIGAEYRYNAKWTFRGGFHYAQEAIPGNMLLAVVPATPTTSLTGGVSYAIGKNDVIDFALSVALRKTLDNASQPNTAVPISVTHSQVNAVIAYQKRFHHHHHH”: “soluble”. The value for “MIRSTVLILASFALAVNCYECMNNTVVINAPSDISKPVFYPDGWDGQSSTPQISENQQCVMTINVPTGYYATVTFYKHFTEPGGYLYFPSRKIELLQNDDYNPYIFPSPMVKINIGTDNRNDVMNQFGFKVVYSKYPTLEKNIINIDLGSPPVAAKPSEKLTTFVGDRNSMMSLMGFTMADNSKNYLLRQTAIFGGDSTDSTYIGSLSQILNSQQILTTYGNKISVYTFGLDKLIDYPLFMGQNQVDTMGLLKYNGANCPSTGNCNVTLNGNWGAHVVVVTSYDGPETIKSFDSFPDTGVLNVYENNVSNTTCIATLNKFNYLQQLPLQVNGNMKFYELRAGGVYNMVVTRDTSRASRHQI” was “not soluble”; that for “MGSDKIHHHHHHMTRTEHEISFGPYTAVATTRGGALRELRHEGRDLVVGFAADGEIPDYRGVICAPWPNRLAGGRYSFEGKDYQAVVNEEQRGTALHGLVFGAVWELLEHTASSVRLGTRIEPGDGYPGRLDVSVDYELRADGLHSTVRARNVGVEAAPYGACPHPYLIAGPAPLDEWSVQIPATEFMEVSADRLLPEGMAGVEGHAFDFRTEKVLGSVQIDHAFTGLIPNADGLAAVRVHDPSGTGVELEWDATWPWLQIHTADKPSGPTRLGLAVEPMTCPPDAFNSGTDVLRLAPGESHEASWTIRALSR” was “not soluble”. Consider “MAHHHHHHMVTLNSTKPQVVIEASGVPTIQTSSITSPVVLTTPLGKSMYSSYSYSNPVSSSYSSSHHNECEYNWERVSTKPSQSTQHGEYMKTFEVPTGLYYETLPLKRNTNNIFEVTPSKEELEKINYNPRIEVYSTCNFVIIMMDLPGVSKENLKVELENGVLKIFGHKYKVPLEELQTEHEYHTKIIERVGEYYFCKMFQMPPVFSDGQSISCTLRDGELTFKMLASDLRAQKRVVEVQS”, for which the “soluble on expression in E. coli” value is given as “not soluble”. The same measure for “TRIPGVRLMRAEQAYPRSPVFYEPRICILAQGQKIGFLGGETYRYDAERYLVMSVPLPFECETHASAAEPLLGVSVDVDIGTLKELLLQMEEAPGSDDDNELAPSAPMASVPLDAGMADAVMRLLGCLQSPLDSHILGPQLVREIIFRALRSEQGNAL”: “not soluble”.

“MAHHHHHHMHTKHTRRPVDTHKRNTMPLIRPGMPKPPQGFDVVLAKLEEYDEQMKLATQEESKGVVGVTTRPRHSGGFGARKRMRDDDANAEDGTVAPPAEASSTVAAAESEAGTSTAGDDNAEAKEEPPIPPLWRMAAINRARTRYVFLAYYKQHIISKEVYDYCVDTRLIDGGLARRWRLPGYERLCCTACGVPGAASLAASITSKYALRDRQERRLTTSASQQRIHDTATCLCRVPAAQRRSKHFVACAACGCHGCCSADAMKGPKEGDGGEKTDKTREEPSVNAPGRGEA”: the “soluble on expression in E. coli” value is on record as “not soluble”. The value for “MNDRARELASRLIRNFNEASLEHEVREPLYESAAARLGTGTVAHKLGASVDVVAPGKRSCPYHFHHAQEEMFVIIEGEGSLRVAGEMLPIKTGDVLFIPAGPEYPHQIINTSQAPLKYLSISTRETPEVCEYPDSGKYQAMVSANGARVFTANQRTTENVDYWDGEPLEHHHHHH” was “soluble”; that for “MSLDSWNVLIADDEIIIREGIRDAINWSELQLTVVAEAEDGEEALELALEHQVDILLADLNMPIMNGLTLIKQLRTALPHCKVIIITGHDEFVYAQEAIRLSVVDYIIKPVDADQLYEVLKKVCIELTEGQNRKREETFTAKQLEKNITLLREQFCSNWVMGALTNEEVAEQLSFLQLPDTLPSFIGVIRCLNRLHLVGEGHHHHHH” was “soluble”. The same measure for “MNVTSGMDQILAQLKATSDLAAGGSKPSATVSTVSQADFGQLLKSAVDQVNTVQQTASQLSREFVGGNQDVELHDVMISLQKANVSFQSMIQVRNRLVTAYQEIMNMQV”: “not soluble”. For “MKYCDFNGCHNKISKGRYCEEHKRNKPRKKKDKKNIYHHENKPFYRTDAWKFVRSKVYERENGCCQRCGRFVFGRRAHVHHVIPIKEDPILKLEENNLRLLCPVCHTIEENEDKPKKVFPSYFGSPPIKNLEHHHHHH”, the “soluble on expression in E. coli” value is recorded as “soluble”.

In the case of “MGSDKIHHHHHHMKKGIQLVALLLTVVMSSCTGGKDKAAVKQEDEKPRVKVADVTARPVDQIQDYTATVEAEVKNNIAPSSPVRIDRILVEVGDRVSKGQKLVQMDAANLTQTKLQLDNQKIEFNRIDELYKVGGASKSEWDAAKMQLDVKQTAYDNLVENTFLLSPINGVITARNYDNGDMYSGGSPVLVVEQITPVKLMINVSETYFTKVKKGEPVDVKLDVYGDELFKGTISLIYPTIDATTRTFQIEIKLDNKDQRVRPGMFARATLNFGTADNVVVPDLAIVKQAGSGDRYVYVYKDGKVSYNKVELGRRMGSEYELKSGVPDNSQVVVAGQARLINGTEVEIEK”, the “soluble on expression in E. coli” value is listed as “not soluble”. The value for “LPENGPEFKIEISLLKDQARVMIDTTGPSLFKRGYRTEKGGAPIKENMAAAIILLSNWFPDKPFVDPTCGSGTFCIEAAMIGMNIAPGFNRDFAFEEWPWVDEALVTRVRNEADEQADYDIQLDISGFDFDGRMVEIARKNAREVGLEDVVKLKQMRLQDFKTNKINGVLISNPPYGERLLDDKAVDILYNEMGETFAPLKTWSQFILTNDTDFEQKFGRKADKKRKLYNGSLKVDLYQFYGQRVKRVLR” was “not soluble”; that for “MNRRDFLKTAGLTGIALGLPGCARSLPFGRDVFPDFGDDARPYLGLATSLREEHDYEARVEGTIPAGLRGTLYRNGPALFDRGGMRKRTLLDGDGMVQAFRFGDRGIRYANRFVRTRKFVEEEAAGRFLHPTWSTQAPGGIWTNVWPTERLLSQAGITVFPWRGRLYAFDESSFPYELDPDTLATVGETTFGLPRDLTTYSAHGKFDPVTGEWLHFGIRYGPRTFVHLTTFNADGTLRRHRALELPRAIYMHDWFVTERHVVFHLHPVEIAYWPFLLGIRSMAESLRWRPERGTILMVAERDGEAPPRLVETEACYLWHTFNAWEERGKITADFVGYRNPDHFISDDPVITAVMLGRRGTYSYPGEVMRYRIDPARGTAAREVLHQGSCEWPRIDERLRCRPHRTGYMLRCLPGEFFWSIVMGLDPVTGRTDEYSFGRGVYCTEPVFAPRPDTLAGGPGWLLVELYDSRTRTSSLAILDADRIADGPLALVRLTHHVPFSYHGWWQPASLEHHHHHH” was “not soluble”; that for “MSLTQFKKFAEHISSCFSPSAIQEFSRKSKIVKRKRMFTIDHLLWLCVWQEKNMGDSSLIDMCASLWQQFGIKISPEGLNQRFNEKSTAFLKLLFHSILEKQTPDLAAIQHAYSTHFNRIRILDSTSFQLPNTFSDKYPGNGCLMQLKSAEGHHHHHH” was “not soluble”. The value for “MEHKIVHVGDIPVANDKPFTLFAGMNVLESRDLAMQICEHYVKVTDKLGIPYVFKASFDKANRSSVHSYRGPGLEEGMKIFQELKETFGVKIITDVHTEAQAQPVADVVDVIQLPAFLARQTDLVEAMAKTGAVINVKKPQFMSPGQVGNIVEKFAECGNDKVILCERGSCHGYDNLVVDMLGFGVMKQASNGSPIIFDVTHSLQMRDPSGAASGGRREQTVELAKAGLATGIAGLFIEAHPNPDKARCDGPSALPLDKLEPFLAQMKALDDLIKSFAHIDIR” was “not soluble”; that for “SEDEWQCTECKKFNSPSKRYCFRCWALRKDWYSDCSKLTH” was “soluble”; that for “MSEIGTGFPFDPHYVEVLGERMHYVDVGPRDGTPVLFLHGNPTSSYLWRNIIPHVAPSHRCIAPDLIGMGKSDKPDLDYFFDDHVRYLDAFIEALGLEEVVLVIHDWGSALGFHWAKRNPERVKGIACMEFIRPIPTWDEFHHTEVAEEQDHAEAARETFQAFRTADVGRELIIDQNAFIERVLPGGVVRPLTEVEMDHYREPFLKPVDREPLWRFPNELPIAGEPANIVALVEAYMNWLHQSPVPKLLFWGTPGALIPPAEAARLAESLPNCKTVDIGPGLHYLQEDNPDLIGSEIARWLPAL” was “soluble”.

Turning to “MLVRLGYVAMTMNLKDSSPSGTVTVKTLAGLNEDETRLNKLRKVTAANLHNTLRILRYNKAYNISVYRFTSKLVPLATHPMVSHWDYVGEFRNEFKSLGDFVKENNFRVSAHPDHYTLLNSPSKEVFEASVRDLDYHVKLFEAMGLEDYKYKLVMHIGGLYKNKQTSVERFKENYAILPDRIRKRLIFENDDKIYTARDVLDICKELKVPMVLDVHHHNCVNNGERLEDMLKEIFDTWKDEYFPPKIHFSTPKSKENFRSHADEIDVNEFYRFLQIAKKLKKDFDVMIEAKNKDNALFKLSRELKTFDDIRWIDEGHFEIR”, the “soluble on expression in E. coli” value is listed as “not soluble”. Turning to “MFEIATTPMATTVVISGDLDLASRDQFLEVAARLTSLRRSLLTIDMCDVRFMDSTGAAFLISLAETGQRRGWLTVLRGSSDAHRFVLDICGATHLFRFDTEHYCHHTASPA”, the “soluble on expression in E. coli” value is “not soluble”. The value for “AAMTLASQIATQLLDIKAVYLKPEDPFTWASGIKSPIYTDNRVTLSYPKTRDLIENGFVETIKAHFPEVEVIAGTATAGIPHGAIIADKMTLPFAYIRSKPKDHGAGNQIEGRVLKGQKMVIIEDLISTGGSVLDAAAAASREGADVLGVVAIFTYELPKASQNFKEAGIKLITLSNYTELIAVAKLQGYITNDGLHLLKKFKEDQVNWQQ” was “soluble”. The same measure for “MDGFGSHPRTLAVDQWMDIVNGKGYGVGGTTQVYSTRPDSPKFQPSIPPPPGSTSKTRTTATPWRLIDAETKRKKRIATYKTYALEGKVKSTVKKGFHWIKDRYSHIIHG”: “soluble”.
